Measurements: paper PMC5004352

Molecular target: SoPIP2;1 wild type (Spinacia oleracea)
Test: SDS-PAGE (SDS-resistant oligomers); purified protein mixed with SDS sample loading buffer (125 mM Tris-HCl pH 6.8, 20% glycerol, 4% SDS), 10 min at room temperature, 12% gel, Coomassie; WT also pre-incubated with DTT or β-mercaptoethanol for varying times; WT against mutants with 10% β-mercaptoethanol in the loading buffer; monomer to dimer

For SoPIP2;1 wild type (natural protein), the stoichiometry N was 2.
